Test results published in article PMC10100567.

Molecular target: high-affinity IgE receptor FcεRI on the surface of RBL-2H3 cells (rat (endogenous in RBL-2H3))
Assay: Ligand Tracer

With “Cy5-labeled monoclonal mouse anti-DNP IgE (clone SPE-7) (antibody)” the Kd was 1.3 nM.
